The values that follow come from patent publication US20220213209A1 (JOINT STOCK COMPANY BIOCAD, published 2022).

A word on the Kd: it is the equilibrium constant for the complex coming apart.

Assay [1] deals with T1, murine GITR-Fc (Mus musculus, UniProt O35714 20-153).
T1 construct: extracellular domain; also called mouse GITR; musGITR
T1 sequence (looked up): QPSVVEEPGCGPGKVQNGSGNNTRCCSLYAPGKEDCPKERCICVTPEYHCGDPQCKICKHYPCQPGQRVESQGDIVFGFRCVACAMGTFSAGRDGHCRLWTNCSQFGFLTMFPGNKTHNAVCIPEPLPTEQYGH
The assay is described as follows: ELISA, plate coated with mouse GITR-Fc 0.5 µg/ml, antibody titrated 10 to 0.02 µg/ml. As to the method:
ELISA was used to measure relative affinity of antibodies against GITR-Fc from different organisms. For binding assay, ELISA plate wells (medium binding from Greiner bio one) were coated with 50 μl of human/cynomolgus/murine GITR-Fc (0.5 μg/ml in 1× carbonate buffer), sealed and incubated overnight at 4° C. All further steps were performed in accordance with the standard ELISA protocol described in Example 6. […] Therefore, candidate BCD166-01-011 was excluded from further study due to the lack of apparent specificity for the monkey GITR. Candidates BCD166-01-01 and BCD166-01-014 were finalized for further development.

The target in assay [2] is T2, macaca mulatta GITR (Macaca mulatta, UniProt F7DDV8 20-156).
T2 construct: also called rhesus macaque GITR; mcyGITR Macaca mulatta
T2 sequence: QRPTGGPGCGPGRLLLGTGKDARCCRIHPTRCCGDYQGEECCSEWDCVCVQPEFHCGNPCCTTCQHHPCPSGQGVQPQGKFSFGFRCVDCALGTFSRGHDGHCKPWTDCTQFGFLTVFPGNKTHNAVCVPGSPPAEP
The assay is described as follows: BLI OctetRed 96, antigen on AR2G sensors, antibody in solution, 1:1 model. How it is done: (§1) Binding affinity constants for anti-GITR antibodies and rhesus macaque/cynomolgus monkey GITR were obtained using OctetRed 96 according to manufacturer's (ForteBio) protocol. Antigen 25 μg/ml was non-specifically immobilized onto the surface of amine-reactive sensors of the second generation (AR2G) (ForteBio, using standard protocol according to manufacturer's instructions for preparation and immobilization of AR2G sensors). […] The assay was conducted at 30° C. using PBS comprising 0.1% Tween-20 and 0.1% BSA as a working buffer.
(§2) The resulting sensograms, after subtracting a reference signal, were analyzed using Octet Data Analysis software (Version 8.0) in accordance with the standard procedure and using 1:1 interaction model.

Assay [3] addresses T3, macaca Cynomolgus GITR (Macaca cynomolgus).
T3 construct: also called cynomolgus monkey GITR; monkey GITR
Described as above. How it is done: as §1, §2

In assay [4] the target is T4, recombinant human GITR antigen (extracellular domain) (human, UniProt Q9Y5U5 26-162).
T4 construct: extracellular domain
T4 sequence (looked up): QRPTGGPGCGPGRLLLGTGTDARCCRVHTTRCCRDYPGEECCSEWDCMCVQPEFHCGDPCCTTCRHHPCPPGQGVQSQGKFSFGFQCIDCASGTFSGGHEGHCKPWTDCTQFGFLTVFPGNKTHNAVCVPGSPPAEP
Described as above. As to the method:
Binding affinity constants for anti-GITR antibody-human/rhesus macaque/cynomolgus monkey GITR interactions were determined using OctetRed 96 according to manufacturer (ForteBio) protocol. Antigen 25 μg/ml was non-specifically immobilized onto the surface of amine-reactive sensors of the second generation (AR2G) (ForteBio, using standard protocol according to manufacturer's instructions for preparation and immobilization of AR2G sensors). […] The assay was conducted at 30° C. using PBS comprising 0.1% Tween-20 and 0.1% BSA as a working buffer.
The resulting sensograms, after subtracting a reference signal, were analyzed using Octet Data Analysis software (Version 8.0) in accordance with the standard procedure and using 1:1 interaction model. All tested antibodies show high affinity and specificity for human GITR.

The target in assay [5] is T5, human FcRn (human, UniProt P55899 24-297; P61769 21-119, biotinylated (site not stated)).
T5 construct: Biotinylated receptor on streptavidin sensors
Kind of assay: bio-layer interferometry (OctetRed 96), biotinylated receptor on streptavidin sensors, antibody in solution, pH 6 buffer, 30 °C. How it is done: (§3) The binding affinity constants for antibody BCD166-02-01-human FcRn, FcgRIIIa158V, FcgRIIIa158F, FcgRIIa131H, FcgRIIa131R, FcgRIIb and FcgRIa interactions were determined using OctetRed 96 (ForteBio). Biotinylated receptors were immobilized on the surface of streptavidin sensors (SA). We conducted and analyzed the association and dissociation between receptors and antibody in a working buffer (PBS containing 0.1% Tween-20 and 0.1% BSA: for FcRn receptor we used pH6 buffer, for the other receptors we used pH 7.4 buffer) at 30° C. The resulting sensograms were analyzed in accordance with 1:1 or 2:1 models, the affinity constants were calculated using Octet Data Analysis Software 8.0 User Guide Copyright 2011©.
In general terms: BLI is a label-free optical method that tracks binding on a fibre tip over time.

The target of assay [6] is T6, human FcgRIIa131R (human, UniProt P12318 36-218, biotinylated (site not stated)).
T6 construct: Biotinylated receptor on streptavidin sensors
T6 sequence (looked up): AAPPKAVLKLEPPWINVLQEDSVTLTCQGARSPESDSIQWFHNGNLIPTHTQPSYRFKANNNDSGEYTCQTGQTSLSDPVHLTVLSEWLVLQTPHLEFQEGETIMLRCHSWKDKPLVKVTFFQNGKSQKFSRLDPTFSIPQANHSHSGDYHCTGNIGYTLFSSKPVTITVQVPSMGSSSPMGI
The assay is described as follows: bio-layer interferometry (OctetRed 96), biotinylated receptor on streptavidin sensors, antibody in solution, pH 7.4 buffer, 30 °C. As to the method:
as §3

Assay [7] has as its target T7, human FcgRIIa131H (human, UniProt P12318 36-218, biotinylated (site not stated)).
T7 construct: Biotinylated receptor on streptavidin sensors
T7 sequence (looked up): T6 sequence (looked up) with R132H
The assay is described as above. How it is done: as §3

Assay [8] has as its target T8, human FcgRIa (human, UniProt P12314 16-288, limits assumed, biotinylated (site not stated)).
T8 construct: Biotinylated receptor on streptavidin sensors
Described as above. How it is done: as §3

The target in assay [9] is T9, human FcgRIIIa158V (human, UniProt P08637 17-208, biotinylated (site not stated)).
T9 construct: Biotinylated receptor on streptavidin sensors
The assay is described as above. As to the method: as §3

Assay [10] addresses T10, human FcgRIIb (human, UniProt P31994 43-217, biotinylated (site not stated)).
T10 construct: Biotinylated receptor on streptavidin sensors
T10 sequence (looked up): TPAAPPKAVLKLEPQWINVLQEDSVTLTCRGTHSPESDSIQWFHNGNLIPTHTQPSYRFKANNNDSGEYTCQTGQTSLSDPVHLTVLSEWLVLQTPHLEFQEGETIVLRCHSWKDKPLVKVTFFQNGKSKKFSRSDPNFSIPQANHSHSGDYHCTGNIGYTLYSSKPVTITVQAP
The description is as above. As to the method:
as §3

The target in assay [11] is T11, human FcgRIIIa158F (human, UniProt P08637 17-208, biotinylated (site not stated)).
T11 construct: Biotinylated receptor on streptavidin sensors
Described as above. As to the method: as §3

The target in assay [12] is T12, GITR stably expressed on the surface of HEK-293 cells (UniProt Q9Y5U5 26-241).
T12 sequence (looked up): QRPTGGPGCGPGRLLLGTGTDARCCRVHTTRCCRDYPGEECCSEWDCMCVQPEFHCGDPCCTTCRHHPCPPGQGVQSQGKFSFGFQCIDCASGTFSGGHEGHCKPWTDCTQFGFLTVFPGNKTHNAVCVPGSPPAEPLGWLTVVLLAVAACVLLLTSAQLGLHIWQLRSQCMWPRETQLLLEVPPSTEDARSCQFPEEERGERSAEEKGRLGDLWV
Kind of assay: cell-based or functional assay.

Numbering of substitutions follows the chain as printed. Numbers in names are those of the source.

T8 sequence (P12314 16-288 limits assumed): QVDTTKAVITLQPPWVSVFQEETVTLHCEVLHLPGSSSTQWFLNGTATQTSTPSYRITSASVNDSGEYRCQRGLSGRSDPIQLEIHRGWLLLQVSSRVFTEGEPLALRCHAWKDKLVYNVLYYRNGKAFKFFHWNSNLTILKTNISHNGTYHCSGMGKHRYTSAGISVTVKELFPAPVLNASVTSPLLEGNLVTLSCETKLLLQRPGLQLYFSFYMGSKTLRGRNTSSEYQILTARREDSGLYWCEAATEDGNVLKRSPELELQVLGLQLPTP
T9 sequence (P08637 17-208 F176V limits assumed): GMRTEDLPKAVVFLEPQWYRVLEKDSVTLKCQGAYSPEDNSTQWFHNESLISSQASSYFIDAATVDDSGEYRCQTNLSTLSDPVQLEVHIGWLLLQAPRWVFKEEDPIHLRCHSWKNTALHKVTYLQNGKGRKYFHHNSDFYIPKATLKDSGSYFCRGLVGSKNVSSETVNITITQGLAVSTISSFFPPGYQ
T5 sequence (P55899 24-297 limits assumed, chain 1 of 2): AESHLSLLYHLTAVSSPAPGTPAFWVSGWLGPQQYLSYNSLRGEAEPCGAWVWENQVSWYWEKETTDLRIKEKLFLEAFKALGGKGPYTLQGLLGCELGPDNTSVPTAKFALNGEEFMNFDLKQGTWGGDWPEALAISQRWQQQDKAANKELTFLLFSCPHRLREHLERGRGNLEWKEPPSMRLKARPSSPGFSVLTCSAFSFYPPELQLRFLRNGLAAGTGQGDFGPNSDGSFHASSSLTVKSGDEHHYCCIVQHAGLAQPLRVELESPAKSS
T5 sequence (P61769 21-119 limits assumed, chain 2 of 2): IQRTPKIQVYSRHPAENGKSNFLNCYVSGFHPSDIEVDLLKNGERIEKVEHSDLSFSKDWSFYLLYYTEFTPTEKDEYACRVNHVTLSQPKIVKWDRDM
T11 sequence (P08637 17-208 limits assumed): as the sequence (P08637 17-208 F176V limits assumed) above, with V160F counted along it

B1: BCD166-01-014 (antibody, human IgG1, lambda, V domains shown)
VH: QVQLVQSGGGLVQPGGSLRLSCAASGFTFSYYWMYWVRQAPGKGLEWVSAISWNGGRTYYAESMKGRFTISRDNAQNTLYLQMNSLKSEDTAVYYCAKNRYYSDPNYGMNLWGKGTTVTVSS
VL: QSALTQPASVSGSPGQSITISCTGTSTDIGTYKYISWYQQHPGKAPKLIIYGVSHRPSGVSDRFSGSKSDNTASLTISGLQAEDEADYYCSSYTSSGTVVFGGGTKVTVLG
notes: Full-length IgG1, lambda light chain; from an immune llama-human CHARM Fab library; also called BCD166-01-14
Consider B1, for which the binding result in assay [1] is “no binding (tested: 10 µg/ml)”. In addition, the dissociation constant (Kd) was 0.192 nM in assay [2], 55.3 nM in [3] and 8.5 nM in assay [4].

B2: BCD166-02-01 (antibody, human IgG1, kappa)
heavy: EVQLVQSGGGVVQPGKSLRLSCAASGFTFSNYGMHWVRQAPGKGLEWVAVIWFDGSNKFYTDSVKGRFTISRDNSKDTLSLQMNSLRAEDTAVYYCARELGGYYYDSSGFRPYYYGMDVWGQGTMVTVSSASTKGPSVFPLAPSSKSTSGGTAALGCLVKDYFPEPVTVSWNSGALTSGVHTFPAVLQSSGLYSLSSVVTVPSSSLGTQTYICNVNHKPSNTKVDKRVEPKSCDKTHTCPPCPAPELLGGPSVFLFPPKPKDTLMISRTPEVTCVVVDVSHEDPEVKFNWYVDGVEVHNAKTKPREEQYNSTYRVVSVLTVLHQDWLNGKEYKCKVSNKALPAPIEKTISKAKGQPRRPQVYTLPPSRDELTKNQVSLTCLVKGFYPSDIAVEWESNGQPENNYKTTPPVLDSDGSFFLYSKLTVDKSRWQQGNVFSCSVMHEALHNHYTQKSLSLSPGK
light: DVVMTQSPSSVSASVGDRVTITCRASQSIGSWLAWYQQKPGEAPKLLIYAASTLQRGVPSRFSGGGYGTEFTLTISSLQPEDFATYFCQQSHSHPLTFGGGTKVEIKRTVAAPSVFIFPPSDEQLKSGTASVVCLLNNFYPREAKVQWKVDNALQSGNSQESVTEQDSKDSTYSLSSTLTLSKADYEKHKVYACEVTHQGLSSPVTKSFNRGEC
notes: BCD166-01-01 with the E345R mutation (EU numbering) in the IgG1 Fc; also called BCD166-02-001
In the case of B2, the Kd in [5] was determined as 27 nM; in assay [6], 40.2 nM; in assay [7] it was 72.2 nM; in assay [8] it was 0.723 nM; in assay [9], 118 nM; in [10], 557 nM. This molecule gave a Kd in assay [11] of 1420 nM. Further, the “EC50 in ADCC reporter assay (Jurkat-NFAT-Luc-CD16 effector cells, Hek-293-GITR target cells)” value in assay [12] is 40 fold, against BCD166-01-01. Further, the “EC50 in cell agonist assay (HEK293-GITR-NFkB-Luc)” value in assay [12] was 20 fold, against BCD166-01-01. Moreover, in assay [12], the “level of activation in cell agonist assay (HEK293-GITR-NFkB-Luc)” value is 5 fold, against BCD166-01-01.

B3: BCD166-01-01 (antibody, human IgG1, kappa)
heavy: not shown
light: B2 light
notes: Full-length human IgG1, kappa; also called BCD166-01-001; BCD166-NHVKITSe13-5-H3-25
B3: the binding result in assay [1] is reported as “no binding (tested: 10 µg/ml)”. The Kd in [2] was determined as 0.0924 nM; in assay [3], 0.542 nM; in [4] it was 0.0638 nM.
